Measurements as given in publication PMC5955610 (Structure (London, England : 1993), 2010).

Molecular target: T1, RMI1C (C-terminal domain of human RMI1, residues 475-625) (human, UniProt Q9H9A7 475-625, Se-Met substituted in the crystals)
T1 sequence (looked up): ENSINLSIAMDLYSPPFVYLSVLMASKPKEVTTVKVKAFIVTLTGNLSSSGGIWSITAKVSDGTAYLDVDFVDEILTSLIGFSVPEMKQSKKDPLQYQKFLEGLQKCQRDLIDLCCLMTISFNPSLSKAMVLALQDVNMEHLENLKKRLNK
Assay: crystal structure + SEC

B1: RMI2 (residues 6-147) (domain or fragment, human, UniProt Q96E14 6-147, looked up)
chain: DSFSGGPAGVRLPRSPPLKVLAEQLRRDAEGGPGAWRLSRAAAGRGPLDLAAVWMQGRVVMADRGEARLRDPSGDFSVRGLERVPRGRPCLVPGKYVMVMGVVQACSPEPCLQAVKMTDLSDNPIHESMWELEVEDLHRNIP
modifications: Se-Met substituted in the crystals
**Q.** Which “stoichiometry N” value does the source give for B1 here?
**A.** The value was 1 RMI1C:RMI2.
